B1: Isoform 1B of Desmocollin-1 (protein)
chain: RWAPIPASLMENSLGPFPQHVQQIQSDAAQNYTIFYSISGPGVDKEPFNLFYIEKDTGDIFCTRSIDREKYEQFALYGYATTADGYAPEYPLPLIIKIEDDNDNAPYFEHRVTIFTVPENCRSGTSVGKVTATDLDEPDTLHTRLKYKILQQIPDHPKHFSIHPDTGVITTTTPFLDREKCDTYQLIMEVRDMGGQPFGLFNTGTITISLEDENDNPPSFTETSYVTEVEENRIDVEILRMKVQDQDLPNTPHSKAVYKILQGNENGNFIISTDPNTNEGVLCVVKPLNYEVNRQVILQVGVINEAQFSKAASSQTPTMCTTTVTVKIIDSDEGPECHPPVKVIQSQDGFPAGQELLGYKALDPEISSGEGLRYQKLGDEDNWFEINQHTGDLRTLKVLDRESKFVKNNQYNISVVAVDAVGRSCTGTLVVHLDDYNDHAPQIDKEVTICQNNEDFAVLKPVDPDGPENGPPFQFFLDNSASKNWNIEEKDGKTAILRQRQNLDYNYYSVPIQIKDRHGLVATHMLTVRVCDCSTPSECRMKDKSTRDVRPNVILGRWAILAMVLGSVLLLCILFTCFCVTAKRTVKKCFPEDIAQQNLIVSNTEGPGEEVTEANIRLPMQTSNICDTSMSVGTVGGQGIKTQQSFEMVKGGYTLDSNKGGGHQTLESVKGVGQGDTGRYAYTDWQSFTQPRLGEESIRGHTLIKN
B2: Complement factor H-related protein 1 (protein)
chain: EATFCDFPKINHGILYDEEKYKPFSQVPTGEVFYYSCEYNFVSPSKSFWTRITCTEEGWSPTPKCLRLCFFPFVENGHSESSGQTHLEGDTVQIICNTGYRLQNNENNISCVERGWSTPPKCRSTDTSCVNPPTVQNAHILSRQMSKYPSGERVRYECRSPYEMFGDEEVMCLNGNWTEPPQCKDSTGKCGPPPPIDNGDITSFPLSVYAPASSVEYQCQNLYQLEGNKRITCRNGQWSEPPKCLHPCVISREIMENYNIALRWTAKQKLYLRTGESAEFVCKRGYRLSSRSHTLRTTCWDGKLEYPTCAKR
B3: Isoform 2 of Arginase-1 (protein)
chain: MSAKSRTIGIIGAPFSKGQPRGGVEEGPTVLRKAGLLEKLKEQVTQNFLILECDVKDYGDLPFADIPNDSPFQIVKNPRSVGKASEQLAGKVAEVKKNGRISLVLGGDHSLAIGSISGHARVHPDLGVIWVDAHTDINTPLTTTSGNLHGQPVSFLLKELKGKIPDVPGFSWVTPCISAKDIVYIGLRDVDPGEHYILKTLGIKYFSMTEVDRLGIGKVMEETLSYLLGRKKRPIHLSFDVDGLDPSFTPATGTPVVGGLTYREGLYITEEIYKTGLLSGLDIMEVNPSLGKTPEEVTRTVNTAVAITLACFGLAREGNHKPIDYLNPPK
B4: Isoform 2 of Spermatid perinuclear RNA-binding protein (protein)
chain: MVKHSTIYPSPEELEAVQNMVSTVECALKHVSDWLDETNKGTKTEGETEVKKDEAGENYSKDQGGRTLCGVMRIGLVAKGLLIKDDMDLELVLMCKDKPTETLLNTVKDNLPIQIQKLTEEKYQVEQCVNEASIIIRNTKEPTLTLKVILTSPLIRDELEKKDGENVSMKDPPDLLDRQKCLNALASLRHAKWFQARANGLKSCVIVLRILRDLCNRVPTWAPLKGWPLELICEKSIGTCNRPLGAGEALRRVMECLASGILLPGGPGLHDPCERDPTDALSYMTIQQKEDITHSAQHALRLSAFGQIYKVLEMDPLPSSKPFQKYSWSVTDKEGAGSSALKRPFEDGLGDDKDPNKKMKRNLRKILDSKAIDLMNALMRLNQIRPGLQYKLLSQSGPVHAPVFTMSVDVDGTTYEASGPSKKTAKLHVAVKVLQAMGYPTGFDADIECMSSDEKSDNESKNETVSSNSSNNTGNSTTETSSTLEVRTQGPILTASGKNPVMELNEKRRGLKYELISETGGSHDKRFVMEVEVDGQKFRGAGPNKKVAKASAALAALEKLFSGPNAANNKKKKIIPQAKGVVNTAVSAAVQAVRGRGRGTLTRGAFVGATAAPGYIAPGYGTPYGYSTAAPAYGLPKRMVLLPVMKFPTYPVPHYSFF
B5: Ig kappa chain V-I region BAN (protein)
chain: DIQMTQSPSSLSASVGDRVTITCRASQGISNYLAWFQQKPGKAPKSLIYAASSLQSGVPSKFSGSGSGTDFTLTISSLQPEDFATYYCQQYNSYP
B6: Histone H1.3 (protein)
chain: SETAPLAPTIPAPAEKTPVKKKAKKAGATAGKRKASGPPVSELITKAVAASKERSGVSLAALKKALAAAGYDVEKNNSRIKLGLKSLVSKGTLVQTKGTGASGSFKLNKKAASGEGKPKAKKAGAAKPRKPAGAAKKPKKVAGAATPKKSIKKTPKKVKKPATAAGTKKVAKSAKKVKTPQPKKAAKSPAKAKAPKPKAAKPKSGKPKVTKAKKAAPKKK
B7: Coagulation factor XIII B chain (protein)
chain: EEKPCGFPHVENGRIAQYYYTFKSFYFPMSIDKKLSFFCLAGYTTESGRQEEQTTCTTEGWSPEPRCFKKCTKPDLSNGYISDVKLLYKIQENMRYGCASGYKTTGGKDEEVVQCLSDGWSSQPTCRKEHETCLAPELYNGNYSTTQKTFKVKDKVQYECATGYYTAGGKKTEEVECLTYGWSLTPKCTKLKCSSLRLIENGYFHPVKQTYEEGDVVQFFCHENYYLSGSDLIQCYNFGWYPESPVCEGRRNRCPPPPLPINSKIQTHSTTYRHGEIVHIECELNFEIHGSAEIRCEDGKWTEPPKCIEGQEKVACEEPPFIENGAANLHSKIYYNGDKVTYACKSGYLLHGSNEITCNRGKWTLPPECVENNENCKHPPVVMNGAVADGILASYATGSSVEYRCNEYYLLRGSKISRCEQGKWSSPPVCLEPCTVNVDYMNRNNIEMKWKYEGKVLHGDLIDFVCKQGYDLSPLTPLSELSVQCNRGEVKYPLCTRKESKGMCTSPPLIKHGVIISSTVDTYENGSSVEYRCFDHHFLEGSREAYCLDGMWTTPPLCLEPCTLSFTEMEKNNLLLKWDFDNRPHILHGEYIEFICRGDTYPAELYITGSILRMQCDRGQLKYPRCIPRQSTLSYQEPLRT
B8: Caspase-14 (protein)
chain: MSNPRSLEEEKYDMSGARLALILCVTKAREGSEEDLDALEHMFRQLRFESTMKRDPTAEQFQEELEKFQQAIDSREDPVSCAFVVLMAHGREGFLKGEDGEMVKLENLFEALNNKNCQALRAKPKVYIIQACRGEQRDPGETVGGDEIVMVIKDSPQTIPTYTDALHVYSTVEGYIAYRHDQKGSCFIQTLVDVFTKRKGHILELLTEVTRRMAEAELVQEGKARKTNPEIQSTLRKRLYLQ

Experiments:
Assay in all cases: Mass spectroscopy proteomics, semi-quantitative binding affinity of serum proteins (plaqueproteome, Table 2)
Conditions in all cases: higher number = stronger affinity
[1] = biological target: T1, Abeta-42 plaque particles (Homo sapiens, UniProt P05067)
T1 construct: Abeta 1-42
Outline: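 AD patient serum or plasma (50% in PBS) was incubated with Abeta-42 aggregates (30 μg) for 1 h at 37 °C, then stained with Thioflavin S for 30 min. Labeled particles were FACS-sorted, trypsin/Lys-C digested overnight and analyzed by MS/MS. Sequest searched human UniProt; Scaffold/Protein Prophet validated the identifications.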

Tau plaque particles = tested on: Tau plaque particles; parameters: species or system human
Outline: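 Serum or plasma proteins captured on Thioflavin S-labelled Tau plaque particles (Tau-74, Tau-275 oligomers preformed in PBS at 37° C for 2 h; 1 h co-incubation at 37° C) were isolated by FACS sorting, then tryptically digested and identified by MS/MS (Sequest, human UniProt, strict trypsin).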

[2] = tested on: Low density cholesterol (Chl small) plaque particles; parameters: species or system human
Outline: (§1)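 Read-out is MS/MS protein identification (Sequest, strict trypsin, 20 ppm parent tolerance; Scaffold probabilities) of serum proteins bound to flow-sorted cholesterol plaque particles. These particles formed when 50% atherosclerotic serum was incubated with 30 μg cholesterol aggregates for 1 hr at 37° C.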

[3] = tested on: High Density cholesterol (Chl Large) plaque particles; parameters: species or system human
Outline: as §1

[4] = biological target: T2, alpha-synuclein plaque particles (Homo sapiens, UniProt P37840)
T2 construct: 140 amino acids polypeptide
Outline: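 AD-subject plasma or serum (800 μL of 50%) mixed with 30 μg preformed alpha-synuclein aggregates for 1 h at 37 °C; Thioflavin S-positive particles isolated by flow sorting. After reduction, acrylamide alkylation and overnight tryptic digestion, serum proteins identified by MS/MS with Sequest and Scaffold.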

Row | Molecule | Semi-quantitative analysis of proteins binding to different plaque particles: Abeta-42 [1] | Semi-quantitative analysis of proteins binding to different plaque particles: Tau (Tau plaque particles) | Semi-quantitative analysis of proteins binding to different plaque particles: Chl small [2] | Semi-quantitative analysis of proteins binding to different plaque particles: Chl Large [3] | Semi-quantitative analysis of proteins binding to different plaque particles: Synuclein [4]
1 | B1 | 4 | 0 | 0 | 0 | 0
2 | B2 | 0 | 1 | 1 | 2 | 0
3 | B3 | 2 | 0 | 0 | 0 | 0
4 | B4 | 2 | 0 | 0 | 0 | 0
5 | B5 | 2 | 2 | 1 | 2 | 1
6 | B6 | 2 | 0 | 0 | 0 | 0
7 | B7 | 0 | 0 | 1 | 0 | 0
8 | B8 | 5 | 0 | 0 | 0 | 0

Reference: patent US9618524B2, “Method, composition, isolation and identification of a plaque particle and related biomarker” (Plaxgen Inc., priority 2012, dated 2017)
